This data set in a line: yeast display, Sf9 membrane polyspecificity reagent, FACS + sequencing; frameworks hold sequencing errors. An outline of the steps: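 A nanobody's polyreactivity label depends on the gate it was sorted from. Yeast display cells were stained with 10% biotinylated, detergent-solubilized Sf9 membrane reagent for 1 hour at 4 °C, enriched on streptavidin microbeads and sorted by FACS. The low and high (top ~1%) gates were set on anti-HA fluorescence for expression and streptavidin fluorescence for reagent binding.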
For the sequence “QVQLVESGGGLLQAGGSLRLSCAASGSTFQWYAMGWYRQAPGKERELVAGITRTGSTYYADSVKGRFTISRDNAKNTVYLQMNSLKPEDTAVYYCAAKWHTASGKYYYWGQGTQVTVSS”, the “polyreactivity (PSR sort gate)” value is listed as “high polyreactivity”.

Take “QVQLVESGGGLLQAGGSLRLSCAASGSTYFGNAMGWDRQAPGKERELVAAITSGGSTNYADSVKGRFTISRDNAKNTVYLQMNSLKPEDTAVYYCAKPSRWGWTGFYAYDYWGQGTQVTVSS”: the “polyreactivity (PSR sort gate)” value was “low polyreactivity”.

For the sequence “QVQLVESGGGLLQAGGSLRLSCAASGVIFSWYAMGWYRQAPGKERELVAAINWSGDSTYYADSVKGRFTISRDNAKNTVYLQMNSLKPEDTAVYYCAADPSYWGDPYDYWGQGTQVTVSS”, the “polyreactivity (PSR sort gate)” value is listed as “high polyreactivity”.

Take “QVQLVESGGGLLQAGGSLRLSCAASVNIFWRYRMGWYRQAPGKERELVAAIRRSGGTTYYADSVKGRFTISRDNAKNTVYFQMNSLKPEDTAVYNCAAGLTVRKFVRFDYWGHGTQVTVSS”: the “polyreactivity (PSR sort gate)” value was “low polyreactivity”.

As for “QVQLVESGGGLLQAGGSLRLSCASSGITFGDNVMGWYRQAPGKERELVAAISRIGDDTYYADSVKGRFTISRDNAKNTVFFQMNSLKPEDTAVYYCATDFTQRDYYNYGYWGQRTQVTVSS”, the “polyreactivity (PSR sort gate)” value is recorded as “low polyreactivity”.

Regarding “QVQLVESGGGLLQAGGSLRLSCASSGSTFYTNDMGWYRPAPGKERELVAAITSAGNTNYADSVKGRFTISRDNAKNTVYLQMNSLKPEDTAVYYYYYYQYDYWGQGTQVTVSS”, the “polyreactivity (PSR sort gate)” value is reported as “low polyreactivity”.

For “QVQLVESGGGLLQAGGTLRLSCAASGITFWSYAMGWYRQAPGKERELVAAITIGGTTYYADSVKGRFTSSRDNAKNTVYLQMNSRKPEDTAVYYCAVDSTDQAPPTYDYWGQGTQVTVSS”, the “polyreactivity (PSR sort gate)” value was “low polyreactivity”.

“QVQLVESGGGLVEAAGSLRLSCAASGRILCGNTMGWYRQATGKERELFAAISWNGGGTYYADSVKGRFTISRDTAKNNVYLQMNSLTPEDTAVYYCATRYTYSTDTGYDYWGQGTQVTVSS”: the “polyreactivity (PSR sort gate)” value was “low polyreactivity”.

For the sequence “QVQLVESGGGLVEAGGSLRLICAAAGSNFSYYAMGWYRQAPGKERELVAAISWNGGRTYYADSVKGRFTISRDNAKYSVYLQMNSLKPEDTAVYYCAARSSYKFYYWGQRTQVTVSS”, the “polyreactivity (PSR sort gate)” value is given as “high polyreactivity”.

Consider “QVQLVESGGGLVEAGGSLRLSCAASGIIFYGYDMGWYREAPGKERELVAGITVSGGTYYADSVKGRFTISRDNAKNTVYLQMNSLKPEDTAVYYSARDQWPYVHGKYAYWGQGTQVTVSS”, for which the “polyreactivity (PSR sort gate)” value is “low polyreactivity”.

For “QVQLVESGGGLVEAGGSLRLSCAASGRIFCYNAMGWYRQAPGKERELVAAIRSGGRTHYADSVKGRFTISRDNAKNTVTLQMNSLKPEDTAVYYCAARSVPYPYRRNPYDYWGQGTQVTVSS”, the “polyreactivity (PSR sort gate)” value is “high polyreactivity”.

“QVQLVESGGGLVEAGGSLRLSCAASGRIFTGYAMGWYRQAPGKERELVAAISDGGSTNYADSVKGRFTISRDNAKNTVYLQMNSLKPEDTAVYYCAADGHSSDQYDYWGPGTQVTVSS”: the “polyreactivity (PSR sort gate)” value was “low polyreactivity”.

In the case of “QVQLVESGGGLVEAGGSLRLSCAASGSIFRINAMGWYRQAPGKERELVAAISTLSGRTYYADSVKGRFTISRDNAKITVYLQMNSLKPEDTAVYYCAVGQARAGLIGGYWGQGTQVTVSS”, the “polyreactivity (PSR sort gate)” value is “high polyreactivity”.

As for “QVQLVESGGGLVEAGGSLRLTCAASGYIIGGNAMGWYRQAPGKERELVAVISSRGGRTYYSDSVKGRFTISRDNAKNTVYLQLNSLKPEDTEVYYCYRVFSYQYKRDYWGQGTQVTVSS”, the “polyreactivity (PSR sort gate)” value is on record as “high polyreactivity”.

As for “QVQLVESGGGLVEAGGSLSLTCAASGRPFQYYAMRWYRPAPGKEREFVAAITRTGARTYYAVSVKGRFTISRDNAKNTVYLQMNSLKPEATAVYYCAKSLTFYSWRDYGYWGQGTQVTVSS”, the “polyreactivity (PSR sort gate)” value was “high polyreactivity”.

With “QVQLVESGGGLVHAGCSLRLSCAASGNIFYAYAMGWYRQAPGKERELVAAISWSGDSTYYADSVKGRFTISRDNAKNTVYLQMNSLKPEDTAVYYCAARKVTYHYQWMDYWGQGSQVTVSS”, the “polyreactivity (PSR sort gate)” value is reported as “low polyreactivity”.

Take “QVQLVESGGGLVHAGCSLRLSCAASGSTYVPYAMGWYRQAPGRERELVADISWSGGSTYYADSVKGRFTISRDNGKNTVFLQMNSLKPEDTAVYYCAATRTKGKFDYWGQGTQVTVSS”: the “polyreactivity (PSR sort gate)” value is recorded as “high polyreactivity”.

As to “QVQLVESGGGLVHAGGCLRISCAASGRIFWYNEMGWYRQATGKERELVADITPRGTRTHYADSVKGRFTISRDNAKNTVYLQMNSLKPEDPGVYYCAKGWYTVDWDAPVFSERGEYWGQGSQVTVSS”, the “polyreactivity (PSR sort gate)” value is given as “low polyreactivity”.

“QVQLVESGGGLVHAGGILRLSCAASGFIFWSYAKGWYRQAPGKERELFAAIDLSGGSTYYADSVKGRFTISRDNAKNTVYLQLNSLKPEDTAVYYCNADGDTYAFTNSDSGFDYWGQGTQVTVSS”: the “polyreactivity (PSR sort gate)” value was “low polyreactivity”.

Consider “QVQLVESGGGLVHAGGILRLSSPASGSTIRYYAMGWYRQAPGKESQLVAVISTSGNTYYADSVKGRFTISRDNAKNTVYLQMNSLKPEDTAVYYCAARGVGGQISQEYDYWGQGTQVTVSS”, for which the “polyreactivity (PSR sort gate)” value is recorded as “low polyreactivity”.

Turning to “QVQLVESGGGLVHAGGRLRLSCAASGRIFFYYAMGWYRQAPGKERELVAAISQSGGSTYYADSVKGRFTISRDNAKNTVYLQMNSLKPEDTSVYYCNAADPYYVTSAVAGDYWGQGTQVTVSS”, the “polyreactivity (PSR sort gate)” value is reported as “low polyreactivity”.

Take “QVQLVESGGGLVHAGGRLRLSCTASGGIFRYYAMGWYRQAPGKERELVAGISRSGGSTHYADSVKGRFTISRDNAKNTVYLQMNSLKPEDTAVYYCAADTYFTKYDYWGQGTQVTVSS”: the “polyreactivity (PSR sort gate)” value was “high polyreactivity”.

With “QVQLVESGGGLVHAGGSHRLSCAASGFTFTFYAMGWYRQAPVKERELVAAIRTSDGRTYYADSVKGRFTISRDNAKNTVYLQMNSLKPEDTAVYYCAAQVYRPRARYYEYDYWGQGTQVTVSS”, the “polyreactivity (PSR sort gate)” value is given as “high polyreactivity”.

As for “QVQLVESGGGLVHAGGSHRLSCAASGSIFDVNAMGWYRPPRGKERELFAAITGTGGSTYYADSVKGRFTISRDNAKNSVYLQMYSLKPDDTSVYDCATVTGVRKYGYWGQGTQVTVSS”, the “polyreactivity (PSR sort gate)” value is given as “high polyreactivity”.

Regarding “QVQLVESGGGLVHAGGSHRLSCAASGSIFPYYTMGWYRQAPGKEREMVAAISGSGTSTYYADSVKGRFTISRDNAKNTVYLQMNSLKPEDTAVYYCAADFRYYVTSLKYDYWGQGTQVTVSS”, the “polyreactivity (PSR sort gate)” value is recorded as “low polyreactivity”.

Take “QVQLVESGGGLVHAGGSLLLSCAASGRTLGWYAMGWYIQAPGKERELVATISITGGSTYYAVSVKGRFTISRDYAKNTVYLQMNSLKPEDTAVYYCAARHGSRRRYYYWGQGTQVTVSS”: the “polyreactivity (PSR sort gate)” value was “high polyreactivity”.

Regarding “QVQLVESGGGLVHAGGSLRISCAASGRIFYKYAMAWYRQAPGKERELVAAISTRGGSTYYADSVKWRFTISRDIAKNTVYSQMNSLKPEDTAVYYCAALSAYGYDYCGQGTQVTVSS”, the “polyreactivity (PSR sort gate)” value is recorded as “high polyreactivity”.

With “QVQLVESGGGLVHAGGSLRISCAASGRTFLPYTMGGYRQAHGSERELVADITTSDGSTYYADSVKGRFTISRDYAKNTVYLQMNSLKPEDTAVFYCAAESPWFWAVFDYWGQGTQVTVSS”, the “polyreactivity (PSR sort gate)” value is on record as “high polyreactivity”.

With “QVQLVESGGGLVHAGGSLRISCAASGRTFQRNAMGWYRQAPGKERELVAAISGGGSTYYADSVKGRFTISRDNAKNTVYLQMNSLKPEDTAVYYCAASSATRLYYFSRGYDYWGQGTQVTVSS”, the “polyreactivity (PSR sort gate)” value was “low polyreactivity”.

In the case of “QVQLVESGGGLVHAGGSLRLSCAASGFIFKFYAMGWYRQAPGKERELVAAISKSGGRTYYADSVKGRFTISRDNAKNTVYLQMNSLKPEDTAVYYCNAPSVGAAFDYWGQGTQVTVSS”, the “polyreactivity (PSR sort gate)” value was “high polyreactivity”.

Consider “QVQLVESGGGLVHAGGSLRLSCAASGFIFKRYTMGWYRQAPGKERELVATINWNGGNTYYADSVKGRFTISRDNAKNTVYLQMNSVKQDDTAVYYCAATRYVTYGSWGQGTQVTVSS”, for which the “polyreactivity (PSR sort gate)” value is reported as “high polyreactivity”.

In the case of “QVQLVESGGGLVHAGGSLRLSCAASGFIFSSYAMGWYRPAPGKERELVAAITSRGGSTYYADSVKGRYTISRDNAKNTVYLQMNSLKPEDTAVYYCAADQGVPSTYDYWGQGTQVTVSS”, the “polyreactivity (PSR sort gate)” value is listed as “low polyreactivity”.

With “QVQLVESGGGLVHAGGSLRLSCAASGFIFSYNARGWYRQAPGKERELVASISRADSTNYADSVKGRFTISRDNAKNTVYLQMNSLKPEDTAVYYCAAAYWPVVWFYYWGQGTQVTVSS”, the “polyreactivity (PSR sort gate)” value is reported as “low polyreactivity”.

As to “QVQLVESGGGLVHAGGSLRLSCAASGFIFYQYAMGWYRQAPGQERELVAAISKSGGNTNYADSVKGRFTISRDNAKNTVYLQMNSLKPEDTAVYYCAADRGQRGLYYWGQGTQVTVSS”, the “polyreactivity (PSR sort gate)” value is listed as “high polyreactivity”.

“QVQLVESGGGLVHAGGSLRLSCAASGFILSANDMGWYRQAPGQERELVADIDSSGRTNYADSVKGRFTISRDNAKNTVYLQMISLKPEDTAVYYCATPPDDKGGGYLGFDYWGQGTQVTVSS”: the “polyreactivity (PSR sort gate)” value is given as “low polyreactivity”.

“QVQLVESGGGLVHAGGSLRLSCAASGFTFPNYAMGWYRQAPGKERSLVAAITSGGGRTNYADSVKGRFTISRDNAKNTVYLQMISLKPEDTAVYYCAKTRVRGSEFGYWGQGTQVTVSS”: the “polyreactivity (PSR sort gate)” value is given as “low polyreactivity”.

Take “QVQLVESGGGLVHAGGSLRLSCAASGFTFSFYAMGWYRQAPGKERELVATITGSGVRTYYADSVKGRFTISRDNAKNTVYLQMNSLKPEDTAVYYCNRQGFTHRGYYWGQGTQVTVSS”: the “polyreactivity (PSR sort gate)” value is “high polyreactivity”.

Regarding “QVQLVESGGGLVHAGGSLRLSCAASGFTFTAYARGWYRQATGKERELVAAINWSGSRTYNADSVKGRFTISRDNAKNTVYLQMNSLKPEDSAVYYCNTATSKSSYRHYDYWGQGTLVTVSS”, the “polyreactivity (PSR sort gate)” value is “high polyreactivity”.

Take “QVQLVESGGGLVHAGGSLRLSCAASGFTFVFYVMGWYRQAPGQERELVAGISGRGASTYYADSVKGRFTISRDNAKNTVYLQMNSLIPEDTAVYYCNAVHWGGTYWGLDYWGQGTQVTVSS”: the “polyreactivity (PSR sort gate)” value is on record as “low polyreactivity”.

As to “QVQLVESGGGLVHAGGSLRLSCAASGFTFWYYTMGWYRQAPGKERELVAAITASGGNTYYADSVKGRFTISRDNAKNTVYLQMYSLKPEDTAVYYSNAVSLKFTRKYDYWGQGPQVTVSS”, the “polyreactivity (PSR sort gate)” value is “high polyreactivity”.

On to “QVQLVESGGGLVHAGGSLRLSCAASGFTFYRNTMGWYRQAPGKERELVAAISTRAGSTYYADSVKGRFTISRDNAKNTVYLQMNSLKPEDTAVYYCAVLTYRGRFEYWGQGTQVTVSS”, for which the “polyreactivity (PSR sort gate)” value was “high polyreactivity”.
